Laboratory results published in doi:10.1101/2025.01.22.634233 (bioRxiv, 2025).

B1: pS5pS7 GST-(CTD)26 (domain or fragment)
chain: not shown
modifications: phosphoserine at S5 and S7 of the CTD heptads (pS5pS7)
B2: BARD1 BRCT (BARD1^554-777), wild type (domain or fragment)
chain: ASHCSVMNTGQRRDGPLVLIGSGLSSEQQKMLSELAVILKAKKYTEFDSTVTHVVVPGDAVQSTLKCMLGILNGCWILKFEWVKACLRRKVCEQEEKYEIPEGPRRSRLNREQLLPKLFDGCYFYLWGTFKHHPKDNLIKLVTAGGGQILSRKPKPDSDVTQTINTVAYHARPDSDQRFCTQYIIYEDLCNYHPERVRQGKVWKAPSSWFIDCVMSFELLPLDS

Experiments:
[1] = target: T1, biotinylated Avi-BARD1^554-777, wild type (human, UniProt Q99728 554-777, biotinylated by MBP-BirA); experiment: BLI
T1 sequence: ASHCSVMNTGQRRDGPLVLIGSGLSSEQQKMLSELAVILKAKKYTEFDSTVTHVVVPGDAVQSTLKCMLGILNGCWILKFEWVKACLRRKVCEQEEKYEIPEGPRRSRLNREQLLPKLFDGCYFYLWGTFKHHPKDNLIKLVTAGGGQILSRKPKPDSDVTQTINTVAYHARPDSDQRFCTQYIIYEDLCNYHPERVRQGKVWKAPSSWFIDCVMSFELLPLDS

cross-linking = target: the molecule itself; experiment: cross-linking

| Binder | Kd [1] [nM] | binding result (cross-linking) |
| --- | --- | --- |
| B1 | 193 |  |
| B2 |  | binds |
